How the values were obtained:
[1] = biological target: T1, human ligand (single-chain IL27: EBI3 linked to IL-27 p28) (Homo sapiens, UniProt Q14213+Q8NEV9); assay: Surface plasmon resonance (BIACORE 3000) kinetic rate and affinity constants; format: binding; details: SPR
T1 construct: purchased R&D Systems
T1 sequence (Q14213+Q8NEV9 with tags, fused parts or gaps): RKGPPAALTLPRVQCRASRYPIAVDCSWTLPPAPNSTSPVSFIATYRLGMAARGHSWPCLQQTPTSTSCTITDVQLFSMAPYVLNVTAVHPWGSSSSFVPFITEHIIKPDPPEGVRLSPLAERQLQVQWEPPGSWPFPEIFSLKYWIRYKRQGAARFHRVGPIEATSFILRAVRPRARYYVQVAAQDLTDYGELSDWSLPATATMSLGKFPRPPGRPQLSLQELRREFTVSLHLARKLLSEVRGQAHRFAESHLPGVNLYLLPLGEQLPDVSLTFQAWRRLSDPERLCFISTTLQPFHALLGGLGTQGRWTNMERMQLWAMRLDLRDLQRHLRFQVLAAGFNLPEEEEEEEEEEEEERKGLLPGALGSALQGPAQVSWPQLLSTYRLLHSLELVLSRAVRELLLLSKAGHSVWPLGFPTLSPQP
Procedure: (§1) Kinetic rate and affinity constant values for the mouse (IL27RAm(mFc1), Example 1) and human (IL27RA-Fc5, Example 2) soluble receptors were obtained by surface plasmon resonance (SPR) using an automated instrument (BIACORE 3000; Biacore International AB, Uppsala, Sweden). The mouse soluble receptor was tested against mouse ligand (lot A1418F), and the human soluble receptor was tested against both mouse (A1426F) and human (A1534F) ligands. For determination of the kinetic rate constants for the receptor-ligand interactions, the gp130 molecule was not included as part of the receptor complex.
(§2) The IL27 ligands used in this study were single-chain molecules comprising EBI3 connected by its C-terminus to the N-terminus of IL-27 p28 via a polypeptide linker. (R&D Systems) Each of the ligands included an amino-terminal peptide tag.
(§3) For the mouse IL27RA study, the soluble receptor was captured onto the chip surface by an isotype-specific anti-mouse Fc antibody (obtained from Jackson ImmunoResearch Laboratories, Inc., West Grove, Pa.) covalently immobilized to the chip (BIACORE CM5 chip) using the standard amine coupling protocol specified by the instrument manufacturer. For the human IL27RA studies, the soluble receptor was directly and covalently immobilized to the chip via the amine coupling protocol. In all studies, ligand was injected over the active (receptor-bound) surface at varying concentrations to obtain a series of binding curves.
(§4) Experimental conditions were optimized for determination of kinetic rate constant values. The molecular densities of the soluble receptor protein loaded onto the chip surface were targeted to obtain maximum IL27 binding levels (Rmax) of ≦20 RU. The analyte (ligand) was injected over the receptor surface at a flow rate of […] at a concentration range of approximately 0.05 to 10 nM, allowing for an association phase of 3 minutes and a dissociation phase of 10 minutes. The mouse soluble receptor surface was regenerated with two 30-second injections at 50 μL/minute of glycine, pH 2.0. The human soluble receptor surface was similarly regenerated with a single 30-second injection.
(§5) All data were assessed using software provided with the instrument (BIACORE Evaluation software v. 3.2). The binding curves were globally fitted to a 1:1 binding model corrected for mass transport limitation resulting from the fast on-rate values (ka) obtained. Statistical analysis of the fits of the experimental binding curves versus theoretical curves gave standard error values for ka and kd of less than 2%, and chi^2 values of less than 2% of Rmax for all interactions tested, providing reasonable confidence in the kinetic rate constant values obtained.

[2] = biological target: T2, mouse ligand (single-chain IL27: EBI3 linked to IL-27 p28) (Mus musculus, UniProt O35228+Q8K3I6); assay: as above; format: binding; details: SPR
T2 construct: purchased R&D Systems
T2 sequence (O35228+Q8K3I6 with tags, fused parts or gaps): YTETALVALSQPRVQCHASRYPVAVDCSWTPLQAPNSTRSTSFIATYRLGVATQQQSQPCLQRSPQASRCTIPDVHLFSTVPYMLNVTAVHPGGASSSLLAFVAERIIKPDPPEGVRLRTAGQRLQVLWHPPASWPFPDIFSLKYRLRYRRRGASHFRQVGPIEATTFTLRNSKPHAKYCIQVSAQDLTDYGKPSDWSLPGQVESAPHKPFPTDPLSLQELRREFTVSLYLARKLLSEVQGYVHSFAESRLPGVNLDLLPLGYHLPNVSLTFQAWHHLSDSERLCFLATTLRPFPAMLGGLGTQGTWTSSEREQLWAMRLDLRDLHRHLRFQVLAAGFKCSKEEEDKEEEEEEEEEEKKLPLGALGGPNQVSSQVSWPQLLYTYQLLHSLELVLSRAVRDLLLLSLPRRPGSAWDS
Procedure: as §1, §2, §3, §4, §5

human IL-27RA-Fc5: Extracellular domain of human IL27RA (amino acids 1 to 512 of SEQ ID NO:3) fused to Fc5, effector minus human gamma1 Fc; SEQ ID NO:16
ka ([1]; 1:1 binding model): 1e+07 M⁻¹ s⁻¹
kd ([1]; 1:1 binding model): 0.0019 s⁻¹
Kd ([1]; Kd=kd/ka): 0.19 nM
ka ([2]; 1:1 binding model): 8.1e+06 M⁻¹ s⁻¹
kd ([2]; 1:1 binding model): 0.0018 s⁻¹
Kd ([2]; Kd=kd/ka): 0.22 nM
